Reference: the supplement of paper PMC7877785
± gives the uncertainty stated by the source.

Test: self-splicing fitness, log relative to wild type (ln ratio); higher = more splicing; Tetrahymena group I intron in knt gene, E. coli kanamycin selection, DiMSum; sequences stand for … in CUCUCU…GGAGGGAAAAGUUAUCAGGCAUGCACCUGGUAGCUAGUCUUUAAACCAAUAGAUUGCAUCGGUUUAAAAGGCAAGACCGUCAAAUUGCGGGAAAGGGGUCAACAGCCGUUCAGUACCAAGUCUCAGGGGAAACUUUGAGAUGGCCUUGCAAAGGGUAUGGUAAUAAGCUGACGGACAUGGUCCUAACCACGCAGCCAAGUCCUAAGUCAACAGAUCUUCUGUUGAUAUGGAUGCAGUUCACAGACUAAAUGUCGGUCGGGGAAGAUGUAUUCUUCUCAUAAGAUAUAGUCGGACCUCUCCUUAAUGGGAGCUAGCGGAUGAAGUGAUGCAACACUGGAGCCGCUGGGAACUAAUUUGUAUGCGAAAGUAUAUUGAUUAGUUUUGGAGUACUCGUGGUCG
Procedure, shortened: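 The eight P1ex-region nucleotides of an intron in the knt kanamycin-resistance gene on pET-22b(+) were all randomised and the library put into E. coli BL21(DE3). Six replicate transformations were grown overnight at 37°C or 30°C on LB agar with or without 25 μg/mL kanamycin, together with 100 μg/mL carbenicillin, 50 μM IPTG and 0.2% rhamnose. Colonies were pooled and amplicon-sequenced on an Illumina HiSeq 2500. Fitness from DiMSum is the error-weighted combination of wild-type-normalised replicate fold changes, kanamycin over none.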

| Sequence | self-splicing fitness (ln) (30 °C) | self-splicing fitness (ln) (37 °C) |
| --- | --- | --- |
| CGCUAGCAAUAUUACGCUGG | -2.63 ± 0.28 | -1.85 ± 0.36 |
| CAAAAGCAAUAUUACGAGUC | -4.06 ± 0.24 | -2.65 ± 0.25 |
| CGGAAGCAAUAUUACGAGAG | -3.45 ± 0.49 | -1.65 ± 0.26 |
| CGCGAGCAAUAUUACGUGAC | – | -2.54 ± 0.3 |
| CGCGAGCAAUAUUACGCACA | -2.3 ± 0.19 | -1.16 ± 0.18 |
| AGCUAGCAAUAUUACGGUUU | -2.66 ± 0.14 | -1.96 ± 0.14 |
| AGUGAGCAAUAUUACGGUUU | -2.09 ± 0.14 | -2.28 ± 0.33 |
| CUCUAGCAAUAUUACGCCAU | – | -3.56 ± 0.33 |
| CCCAAGCAAUAUUACGAUAA | -3.19 ± 0.14 | -3.49 ± 0.2 |
| AAGGAGCAAUAUUACGGAUC | -2.64 ± 0.36 | – |
| GCCGAGCAAUAUUACGUCGG | -4.39 ± 0.46 | – |
| UGAGAGCAAUAUUACGCUGG | -3.87 ± 0.22 | -2.67 ± 0.25 |
| CGAUAGCAAUAUUACGUACU | -1.12 ± 0.081 | -0.791 ± 0.12 |
| GCGGAGCAAUAUUACGAACU | – | -0.902 ± 0.47 |
| GCCCAGCAAUAUUACGUCCU | -1.19 ± 0.11 | -0.722 ± 0.17 |
| ACUAAGCAAUAUUACGGGUU | -3.17 ± 0.16 | -2.34 ± 0.23 |
| CACAAGCAAUAUUACGGGUG | -3.99 ± 0.1 | -2.94 ± 0.11 |
| UGGUAGCAAUAUUACGGUAC | -3.95 ± 0.4 | -1.43 ± 0.27 |
| UUUAAGCAAUAUUACGCGAG | -0.722 ± 0.11 | 0.0933 ± 0.13 |
| GUUCAGCAAUAUUACGCCGU | -1.57 ± 0.1 | -0.339 ± 0.12 |
| AAAAAGCAAUAUUACGCGUC | -2.31 ± 0.16 | -1.72 ± 0.16 |
| UCACAGCAAUAUUACGACAG | -2.15 ± 0.082 | -1.47 ± 0.088 |
| UGCGAGCAAUAUUACGAGGU | -1.68 ± 0.19 | -2.24 ± 0.28 |
| GAAGAGCAAUAUUACGUACG | -3.52 ± 0.25 | -2.15 ± 0.22 |
| AAUAAGCAAUAUUACGUUCG | -1.5 ± 0.08 | -0.605 ± 0.095 |

| Sequence | self-splicing fitness (ln) (30 °C) | self-splicing fitness (ln) (37 °C) |
| --- | --- | --- |
| CGCAAGCAAUAUUACGUAAC | -3.76 ± 0.23 | -2.31 ± 0.19 |
| CUAUAGCAAUAUUACGAGGC | -3.06 ± 0.35 | – |
| GUGCAGCAAUAUUACGCCAA | -1.41 ± 0.14 | -1.72 ± 0.14 |
| GUCCAGCAAUAUUACGAACA | -1.83 ± 0.15 | -0.801 ± 0.12 |
| ACAUAGCAAUAUUACGGGCG | -1.28 ± 0.09 | -1 ± 0.096 |
| CCACAGCAAUAUUACGUUGC | -3.44 ± 0.13 | -2.73 ± 0.14 |
| GGACAGCAAUAUUACGCAAC | -1.68 ± 0.15 | -0.445 ± 0.18 |
| AAUCAGCAAUAUUACGUCGA | -0.548 ± 0.095 | 0.0423 ± 0.1 |
| UGGCAGCAAUAUUACGUGGA | -2.38 ± 0.17 | -1.02 ± 0.13 |
| GGUCAGCAAUAUUACGGACA | -0.754 ± 0.19 | -0.179 ± 0.17 |
| UAAUAGCAAUAUUACGUCAA | -2.33 ± 0.17 | -1.77 ± 0.15 |
| AACGAGCAAUAUUACGAAGA | -3.13 ± 0.33 | -1.82 ± 0.44 |
| GAUGAGCAAUAUUACGACUU | -0.252 ± 0.071 | 0.118 ± 0.089 |
| GGCCAGCAAUAUUACGAGCA | -0.969 ± 0.077 | -0.145 ± 0.084 |
| CAAUAGCAAUAUUACGGCUC | -1.08 ± 0.15 | -0.901 ± 0.23 |
| GGAUAGCAAUAUUACGGUCG | -0.0227 ± 0.077 | 0.199 ± 0.094 |
| CUCGAGCAAUAUUACGUAAG | -2.81 ± 0.17 | -1.26 ± 0.18 |
| UGAGAGCAAUAUUACGAGCC | -1.9 ± 0.33 | – |
| GAAGAGCAAUAUUACGCCAA | – | -2.54 ± 0.45 |
| ACCGAGCAAUAUUACGAUCU | -1.66 ± 0.14 | -0.405 ± 0.15 |
| CCCUAGCAAUAUUACGCUAU | -3.92 ± 0.43 | – |
| GCACAGCAAUAUUACGCCCG | -1.84 ± 0.17 | -0.0618 ± 0.19 |
| AAGAAGCAAUAUUACGCAGA | -2.35 ± 0.17 | -1.5 ± 0.11 |
| AGACAGCAAUAUUACGAGGC | -3.34 ± 0.23 | -2.82 ± 0.3 |
| GUAGAGCAAUAUUACGAGAU | -4.13 ± 0.23 | -0.661 ± 0.16 |

| Sequence | self-splicing fitness (ln) (30 °C) | self-splicing fitness (ln) (37 °C) |
| --- | --- | --- |
| GAAGAGCAAUAUUACGCAGA | -2.65 ± 0.32 | -2.73 ± 0.41 |
| AUUUAGCAAUAUUACGCCCA | -1.06 ± 0.26 | -1.58 ± 0.27 |
| CAAUAGCAAUAUUACGUGAU | -3.98 ± 0.14 | -2.5 ± 0.12 |
| GAUCAGCAAUAUUACGCUUC | -3.16 ± 0.22 | -2.25 ± 0.43 |
| UGUUAGCAAUAUUACGACUC | -1.01 ± 0.19 | -0.182 ± 0.28 |
| GGUAAGCAAUAUUACGGUCA | -0.727 ± 0.1 | 0.416 ± 0.11 |
| CUCUAGCAAUAUUACGAGGG | -3.28 ± 0.22 | -1.45 ± 0.18 |
| CACGAGCAAUAUUACGCAAG | -2.4 ± 0.19 | -0.867 ± 0.15 |
| CUAGAGCAAUAUUACGGGAA | -4.25 ± 0.35 | -2.45 ± 0.45 |
| AUCCAGCAAUAUUACGAGCG | -2.01 ± 0.11 | -1.24 ± 0.12 |
| CGGGAGCAAUAUUACGAGUG | -3.61 ± 0.24 | -1.61 ± 0.2 |
| UCGGAGCAAUAUUACGCUUU | – | -2.3 ± 0.49 |
| AUUAAGCAAUAUUACGUUGU | -1.98 ± 0.21 | -2.8 ± 0.32 |
| GUUUAGCAAUAUUACGGUGC | -1.02 ± 0.32 | 0.233 ± 0.44 |
| AGGGAGCAAUAUUACGCUAU | -3.63 ± 0.43 | -1.85 ± 0.49 |
| ACAUAGCAAUAUUACGAUCG | 0.0966 ± 0.084 | -0.312 ± 0.13 |
| ACCGAGCAAUAUUACGGAAA | -2.92 ± 0.12 | -2.5 ± 0.12 |
| AUAAAGCAAUAUUACGGUGG | -2.61 ± 0.1 | -1.4 ± 0.12 |
| UCCGAGCAAUAUUACGCUCC | -1.58 ± 0.41 | – |
| AAACAGCAAUAUUACGCCUU | -1.66 ± 0.093 | -0.238 ± 0.1 |
| CGCUAGCAAUAUUACGGAAU | -3.52 ± 0.28 | -2.02 ± 0.26 |
| UCCGAGCAAUAUUACGGGUA | -1.06 ± 0.13 | -0.229 ± 0.096 |
| UCUCAGCAAUAUUACGCUAA | -3.89 ± 0.33 | -2.23 ± 0.25 |
| AGGGAGCAAUAUUACGGGAU | -3.19 ± 0.46 | -1.48 ± 0.28 |
| UAUGAGCAAUAUUACGUGGA | -3.52 ± 0.35 | -3.47 ± 0.43 |

| Sequence | self-splicing fitness (ln) (30 °C) | self-splicing fitness (ln) (37 °C) |
| --- | --- | --- |
| CCCAAGCAAUAUUACGCUCG | -3.17 ± 0.2 | -2.14 ± 0.33 |
| AGCAAGCAAUAUUACGAUCG | 0.481 ± 0.09 | -0.163 ± 0.12 |
| CUCGAGCAAUAUUACGCCGG | -3.32 ± 0.43 | -1.17 ± 0.34 |
| UCCAAGCAAUAUUACGGGAC | -3.59 ± 0.25 | -1.24 ± 0.21 |
| CGAUAGCAAUAUUACGAACG | -0.892 ± 0.11 | 0.0703 ± 0.12 |
| AGCAAGCAAUAUUACGUGCC | – | -1.63 ± 0.27 |
| AACAAGCAAUAUUACGAGAG | -3.79 ± 0.22 | -2.24 ± 0.14 |
| CGUGAGCAAUAUUACGGUGU | -3.79 ± 0.43 | -1.98 ± 0.22 |
| UUGAAGCAAUAUUACGAUAG | 0.155 ± 0.071 | 0.398 ± 0.095 |
| GGUGAGCAAUAUUACGACUC | -1.13 ± 0.15 | -0.634 ± 0.22 |
| GAGGAGCAAUAUUACGGCCG | – | -1.55 ± 0.39 |
| CCAUAGCAAUAUUACGGAUA | -2.94 ± 0.21 | -1.81 ± 0.21 |
| AAGCAGCAAUAUUACGUAGU | -2.61 ± 0.1 | -2.47 ± 0.14 |
| UCCGAGCAAUAUUACGAUGU | -3 ± 0.22 | -1.87 ± 0.17 |
| AGGGAGCAAUAUUACGAUCU | -2.71 ± 0.23 | -1.77 ± 0.17 |
| CCAUAGCAAUAUUACGUUUA | -3.25 ± 0.23 | -2.68 ± 0.25 |
| AACAAGCAAUAUUACGGUGU | -2.51 ± 0.056 | -1.45 ± 0.068 |
| AUUCAGCAAUAUUACGCUUC | -2.28 ± 0.15 | -1.76 ± 0.18 |
| AUUAAGCAAUAUUACGGGUU | -2.34 ± 0.23 | -2.92 ± 0.38 |
| UGGUAGCAAUAUUACGAAAA | -2.14 ± 0.19 | -0.612 ± 0.17 |
| UGAAAGCAAUAUUACGCAUC | – | -3.14 ± 0.28 |
| AAGCAGCAAUAUUACGUCUA | -1 ± 0.053 | -1.53 ± 0.062 |
| CCGAAGCAAUAUUACGAGCC | -3.7 ± 0.26 | -2.8 ± 0.23 |
| CCAAAGCAAUAUUACGAUGC | -3.78 ± 0.19 | -3.64 ± 0.24 |
